From the supplement of paper PMC9170038

Tested on: MS2 coat protein
Assay: apparent KD of MS2 coat protein; designed switch direction (-1 OFF switch, 1 ON switch): -1; higher = weaker reporter binding
In short: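 For each design, the apparent KD is the median over clusters of curves fitted to normalised cluster fluorescence. Clusters held RNA switches with common flanks, transcribed on Illumina chips by stalled E. coli RNA polymerase. These were titrated with SNAP-549-labelled MS2 coat protein, doubling from 0.7 or 1.5 nM to 3 µM, without input, with 200 uM small-molecule ligand, or with an oligonucleotide input.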

[1] = Eterna round: R95, input ligand: microRNA oligo, concentration not stated
[2] = input ligand: microRNA oligo, concentration not stated
[3] = Eterna round: R95, input ligand: FMN 200 uM
[4] = Eterna round: R95, input ligand: none

Sequence	apparent KD of MS2 coat protein (input ligand: FMN 200 uM)	apparent KD of MS2 coat protein (input ligand: none)	apparent KD of MS2 coat protein [1]	also measured
CCGAAGCUAGGAUAUACAUGAGGAUCACCCAUGUAAUCUCAUUUACGGGUCGGGCGCAGUAGAAGGAGCAAAGU [EX3 B.17] (Eterna round: R97, puzzle: Exclusion 3)	17.5 nM	15.6 nM	–	–
CCGAAUAAGCAGGAUAUCGAAUCGGAGACGAUUCGAGAAGGGUUAACAUGAGGAUCACCCAUGUUCCUUAACGG [Mat - Exclusion 6 - Eli Mod - D79] (puzzle: Exclusion 6)	–	–	17.3 nM	–
CCGAAUAUGCAGGAUAUCGUAUAGGAAACUAUACGAGAAGGGUAAACAUGAGGAUCACCCAUGUUCCUUAACGG [Mat - Exclusion 6 - Eli Mod - D81] (puzzle: Exclusion 6)	–	–	20.3 nM	–
CCGAAUAUGCAGGAUAUCUUAUCGGAAACGAUAAGAGAAGGGUAAACAUGAGGAUCACCCAUGUUCCUUAACGG [Mat - Exclusion 6 - Eli Mod - D80] (puzzle: Exclusion 6)	–	–	18.9 nM	–
CCGAGGUGGCGGUCCUAUGACAUGAGGAUCACCCAUGUACCUCGCCACAAGCUCUUUGCUCAUCUUAUAGUUCUCGG [Onlaor] (Eterna round: R96, puzzle: Sensor v3, turn-off variant 1)	19.9 nM	24.5 nM	–	apparent KD of MS2 coat protein [2]: 132 nM
CCGAGGUGGCGGUCCUAUGACAUGAGGAUCACCCAUGUACCUCGCCACAAGCUCUUUGCUCAUCUUAUAGUUCUCGG [Onlaor] (puzzle: Sensor v3, turn-off variant 1)	–	–	124 nM	apparent KD of MS2 coat protein [3]: 18.6 nM; apparent KD of MS2 coat protein [4]: 17.9 nM
CCGAGGUGGCGGUCCUAUGACAUGAGGAUCACCCAUGUACCUCGCCACGAGCCUUUUGCUCAUCUUAUAAUUCUCGG [Bienve] (puzzle: Sensor v3, turn-off variant 1)	–	–	20.6 nM	apparent KD of MS2 coat protein [3]: 17.4 nM; apparent KD of MS2 coat protein [4]: 17.2 nM
CCGCAAAAGCAGGAUAUCGUAUCGGAAACGAUACGAGAAGGGUUUACAUGAGGAUCACCCAUGUUCCUUAGCGG [Mat - Exclusion 6 - Eli Mod - D101] (puzzle: Exclusion 6)	–	–	28.7 nM	–
CCGCAAAAGGAGGAUAUCGUAUCGGAUACGAUACGAGAAGGCCUAACAUGAGGAUCACCCAUGUGUCCUAGCGG [Fiskers Ex 6 - 36] (puzzle: Exclusion 6)	–	–	14.8 nM	apparent KD of MS2 coat protein [3]: 23.8 nM; apparent KD of MS2 coat protein [4]: 14.5 nM
CCGCAAAUGGAGGAUAUCGUAUCGGAGACGAUACGAGAAGGCCAAACAUGAGGAUCACCCAUGUGUCCUAGCGG [Mat - Exclusion 6 - Eli Mod - D102] (puzzle: Exclusion 6)	–	–	15.1 nM	apparent KD of MS2 coat protein [3]: 29.3 nM; apparent KD of MS2 coat protein [4]: 16 nM
CCGCAGUGAGGAUAUUGUCAUAGACGGUGUGAAUCACGGGACAAGAAGGUACAUGAGGAUCACCCAUGUGGGUG [Eternabot (L1) Solution 1] (Eterna round: R97, puzzle: Exclusion 4)	54.3 nM	1560 nM	–	–
CCGCAUAAGCAGGAUAUCGUAUCGGAUACGAUACGAGAAGGGUUUACAUGAGGAUCACCCAUGUUCCUUAGCGG [Fiskers Ex 6 - 31] (puzzle: Exclusion 6)	–	–	26.2 nM	–
CCGCAUGCUGUCAGGAUAUCGUAGAUAAUAAUAUGCGAGAAGGGACAUGAGGAUCACCCAUGUAAGAGGCGGCC [Design for Riboswitch] (puzzle: Brourd's mod of Exclusion 4)	–	–	24.4 nM	–
CCGCUCCGUGUAGGAUAUUGGCGUGCCCUGCGCCGAGAAGGACAUGAGGAUCACCCAUGUAUGUUAUUAUCACGCGUGGCGCAC [Design 76] (Eterna round: R96, puzzle: Exclusion NG 1)	15.9 nM	17 nM	–	apparent KD of MS2 coat protein [2]: 12.9 nM
CCGCUGCAAGGAUAUACUUGCGGUGGUGCUCGAGUUCUUCUACUUGAGGAUCACCCAAGUAGAAGGUGCAAAAC [jl-ex2.4.57 ViennaUCT mod] (Eterna round: R97, puzzle: Exclusion 2)	34.4 nM	17.1 nM	–	–
CCGGAAAGGAAGGAUAUGCUAGACGAGAGUCUAGCAGAAGGUCCUACAUGAGGAUCACCCAUGUGUCCUACCGG [Mat - Exclusion 6 - Eli Mod - D38] (Eterna round: R97, puzzle: Exclusion 6)	69.6 nM	79.8 nM	–	–
CCGGAAAGGAAGGAUAUGCUUGACGAAAGUCAAGCAGAAGGUCCUACAUGAGGAUCACCCAUGUGGCCUCCCGG [Mat - Exclusion 6 - Eli Mod - D48] (Eterna round: R97, puzzle: Exclusion 6)	737 nM	128 nM	–	–
CCGGAAAUAGAGGAUAUAGUACUGGAUACAGUACUAGAAGGCUAUACAUGAGGAUCACCCAUGUGUCCUACCGG [Fiskers Ex 6 - 62] (puzzle: Exclusion 6)	–	–	13.9 nM	–
CCGGAAAUAGAGGAUAUCGUACUGGAUACAGUACGAGAAGGCUAUACAUGAGGAUCACCCAUGUGUCCUACCGG [Fiskers Ex 6 - 61] (puzzle: Exclusion 6)	–	–	16.1 nM	–
CCGGAAAUGAAGGAUAUAGGAGUCGAUAGACACCUAGAAGGUCAUACAUGAGGAUCACCCAUGUGUCCUACCGG [Fiskers Ex 6 - 78] (puzzle: Exclusion 6)	–	–	14.9 nM	–
CCGGAAAUGGAGGAUAUCGUAUCGGAUACGAUACGAGAAGGCUAUACAUGAGGAUCACCCAUGUGUCCUACCGG [Fiskers Ex 6 - 5] (puzzle: Exclusion 6)	–	–	12.6 nM	–
CCGGAACAUGAGGAUCACCCAUGUCAGGAUAUGAAUAAAUCGUCGAAAGACGAUAAUCUCAGAAGGGACACCGG [Eli 4.28] (Eterna round: R97, puzzle: Exclusion 1)	22.7 nM	19.6 nM	–	–
CCGGAAGUACAGGAUAUCGUAUCGGAUACGAUACGAGAAGGGUAUACAUGAGGAUCACCCAUGUGUCCUACCGG [Fiskers Ex 6 - 55] (puzzle: Exclusion 6)	–	–	19.6 nM	–
CCGGAUUAGGAGGAUAUAGGAGUCGAUAGACACCUAGAAGGCCUGACAUGAGGAUCACCCAUGUGUCCUACCGG [Mod of Eli 17 - Jieux - Exclusion 6] (Eterna round: R97, puzzle: Exclusion 6)	48.6 nM	22.9 nM	–	–
CCGGCUUACUAGGAUAUCAGAGUCGAAAGACUCUGAGAAGGAGUAACAUGAGGAUCACCCAUGUGUCCUACCGG [Mod of Eli 9 - Jieux - Exclusion 6] (Eterna round: R97, puzzle: Exclusion 6)	113 nM	29.5 nM	–	–
CCGGCUUAGGAGGAUAUAGGAGUCGAUAGACACCUAGAAGGCCUGACAUGAGGAUCACCCAUGUGUCCUACCGG [Fiskers Ex 6 - 98] (puzzle: Exclusion 6)	–	–	14.2 nM	apparent KD of MS2 coat protein [3]: 31.1 nM; apparent KD of MS2 coat protein [4]: 16.5 nM
CCGGGUUAUGUUAGGAUAUGUAGGCCGCAACCGGAACAGAAGGGACAUGAGGAUCACCCAUGUGAUAUUCCCGG [Onxexe] (puzzle: Brourd's mod of Exclusion 4)	–	–	17.5 nM	–
CCGGUUGGCGCAGGAUAUACAUGAGGAUCACCCAUGUUCAUCAGGAUCACCGAUGAGUUUUUGUUGUAGAAGGGUGGCCCGGCC (Eterna round: R96, puzzle: Exclusion NG 2)	–	–	–	apparent KD of MS2 coat protein [2]: 24.2 nM
